Experimental data from PMC12713037, “FBXO44 Regulates FOXP1 Degradation Through AURKA‐Dependent Phosphorylation to Promote Colorectal Cancer Progression” (Advanced Science, 2025).

T1: Purified Myc-FOXP1 (UniProt Q9H334 1-677)
T1 construct: Forkhead box protein P1 (FOXP1), Myc-tagged, purified for the GST pull-down; source: purified
T1 sequence (looked up): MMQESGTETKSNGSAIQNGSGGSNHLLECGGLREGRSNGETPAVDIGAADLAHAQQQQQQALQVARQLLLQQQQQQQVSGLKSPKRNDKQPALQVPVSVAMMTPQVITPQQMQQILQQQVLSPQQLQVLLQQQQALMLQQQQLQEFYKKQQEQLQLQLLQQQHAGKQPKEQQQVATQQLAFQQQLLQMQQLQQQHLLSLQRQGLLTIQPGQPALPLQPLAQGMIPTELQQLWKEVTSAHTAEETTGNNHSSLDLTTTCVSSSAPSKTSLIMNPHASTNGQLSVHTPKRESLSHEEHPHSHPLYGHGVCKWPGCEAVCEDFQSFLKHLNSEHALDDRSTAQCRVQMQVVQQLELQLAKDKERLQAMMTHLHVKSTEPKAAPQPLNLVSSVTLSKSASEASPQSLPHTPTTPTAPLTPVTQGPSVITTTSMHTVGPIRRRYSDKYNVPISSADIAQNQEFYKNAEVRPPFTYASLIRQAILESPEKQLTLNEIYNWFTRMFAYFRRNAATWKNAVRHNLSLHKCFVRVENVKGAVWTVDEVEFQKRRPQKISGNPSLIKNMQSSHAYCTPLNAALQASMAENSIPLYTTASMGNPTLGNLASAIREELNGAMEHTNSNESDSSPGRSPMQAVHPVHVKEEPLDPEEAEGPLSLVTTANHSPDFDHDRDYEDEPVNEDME


Assays:
[1] = target: FBXO44 (F-box only protein 44) (UniProt Q9H4M3); test: co-IP with anti-Flag, Western blot; details: reference: Myc-FOXP1 wild type with His-AURKA; sites S440
Purified Myc-FOXP1 = target: T1, Purified Myc-FOXP1; test: pull-down; GST-FBXO44 coupled to glutathione-Sepharose beads incubated with purified Myc-FOXP1; retained proteins analysed by immunoblot; details: both partners purified

| binding against the reference [1] | binding result (Purified Myc-FOXP1) | Molecule |
| --- | --- | --- |
| weaker | – | FOXP1 (Forkhead box protein P1) (from UniProt Q9H334) Myc-FOXP1 S440A with His-AURKA |
| – | binds | Recombinant GST-FBXO44 (natural protein, UniProt Q9H4M3 1-255, looked up, F-box only protein 44 (FBXO44) fused to GST; source: purified from bacteria) MAVGNINELPENILLELFTHVPARQLLLNCRLVCSLWRDLIDLVTLWKRKCLREGFITEDWDQPVADWKIFYFLRSLHRNLLHNPCAEEGFEFWSLDVNGGDEWKVEDLSRDQRKEFPNDQVKKYFVTSYYTCLKSQVVDLKAEGYWEELMDTTRPDIEVKDWFAARPDCGSKYQLCVQLLSSAHAPLGTFQPDPATIQQKSDAKWREVSHTFSNYPPGVRYIWFQHGGVDTHYWAGWYGPRVTNSSITIGPPLP |
